Results as given in patent US20230265198A1 (TWIST BIOSCIENCE, published 2023).

These binders were tested against T1, neuropilin-1 (NRP1) on HEK293 cells overexpressing NRP1 (UniProt O14786 22-923, limits assumed) (assay: flow cytometry, HEK293-NRP1 vs HEK293).
T1 construct: whole, on cells

100 nM FACS (MFI Ratio) | Binder
1.1 | NRP1-225 (antibody, IgG2, V domains shown) VH: EVQLLESGGGLVQPGGSLRLSCAASGFMFSRYAMSWVRQAPGKGLEWVSAISGSGDTTHYADSVKGRFTISRDNSKNTLYLQMNSLRAEDTAVYYCARGGRGLRLQVPIVRHARKGKDYYMDVWGQGTLVTVSS VL: DIQMTQSPSSLSASVGDRVTITCRASQSIGSHLSWYQQKPGKAPKLLIYRASSLQTGVPSRFSGSGSGTDFTLTISSLQPEDFATYYCLQTYSVPLTFGGGTKVEIK
0.8 | NRP1-271 (antibody, IgG2, V domains shown) VH: EVQLLESGGGLVQPGGSLRLSCAASGFTFTTYGMSWVRQAPGKGLEWVSAISGSGGTTYYADSVKGRFTISRDNSKNTLYLQMNSLRAEDTAVYYCARVGPGRSIAARQGFKRRNNWFDPWGQGTLVTVSS VL: DIQMTQSPSSLSASVGDRVTITCRARQSISTYLNWYQQKPGKAPKLLIYSASTLESGVPSRFSGSGSGTDFTLTISSLQPEDFATYYCQQSYRTPWTFGGGTKVEIK
2.8 | NRP1-217 (antibody, IgG2, V domains shown) VH: EVQLLESGGGLVQPGGSLRLSCAASGFTFGRYAMSWVRQAPGKGLEWVSSISGSGGSTYYADSVKGRFTISRDNSKNTLYLQMNSLRAEDTAVYYCARQRIKPNTPRESFFRRAYSYYGMDVWGQGTLVTVSS VL: DIQMTQSPSSLSASVGDRVTITCRTSQRISTSLNWYQQKPGKAPKLLIYGASNLQSGAPSRFSGSGSGTDFTLTISSLQPEDFATYYCQQSYFTPITFGGGTKVEIK
1.2 | NRP1-229 (antibody, IgG2, V domains shown) VH: EVQLLESGGGLVQPGGSLRLSCAASGLTFSNFAMSWVRQAPGKGLEWVSAISGRGSSTYYADSVKGRFTISRDNSKNTLYLQMNSLRAEDTAVYYCARVMKMSRRIVGRRHRKGDGMDVWGQGTLVTVSS VL: DIQMTQSPSSLSASVGDRVTITCRASQAISRSLNWYQQKPGKAPKLLIYGASALQTGVPSRFSGSGSGTDFTLTISSLQPEDFATYYCQQSYRPPFTFGGGTKVEIK
2.6 | NRP1-227 (antibody, IgG2, V domains shown) VH: EVQLLESGGGLVQPGGSLRLSCAASGFTLRNYAMSWVRQAPGKGLEWVSALSSSGGSTYYADSVKGRFTISRDNSKNTLYLQMNSLRAEDTAVYYCARGGRGLRLQVPIVRHARKGKDYYMDVWGQGTLVTVSS VL: DIQMTQSPSSLSASVGDRVTITCRPSQSVTTYLNWYQQKPGKAPKLLIYGSSTLQSGVPSRFSGSGSGTDFTLTISSLQPEDFATYYCQQSYTFPRTFGGGTKVEIK
0.9 | NRP1-238 (antibody, IgG2, V domains shown) VH: EVQLLESGGGLVQPGGSLRLSCAASGFSFSNYGMSWVRQAPGKGLEWVSSISHSGGSTYYADSVKGRFTISRDNSKNTLYLQMNSLRAEDTAVYYCARVGPGRSIAARQGFKRRNNWFDPWGQGTLVTVSS VL: DIQMTQSPSSLSASVGDRVTITCRASQSISSQLNWYQQKPGKAPKLLIYRASRLQSGVPSRFSGSGSGTDFTLTISSLQPEDFATYYCQQSYSTPRSFGGGTKVEIK
1.3 | NRP1-232 (antibody, IgG2, V domains shown) VH: EVQLLESGGGLVQPGGSLRLSCAASGFTFTNYAMNWVRQAPGKGLEWVSSISGSGGRTDYADSVKGRFTISRDNSKNTLYLQMNSLRAEDTAVYYCARLKRGGTNLVRKATRYQFYGMDAWGQGTLVTVSS VL: DIQMTQSPSSLSASVGDRVTITCRASQNIAKYLNWYQQKPGKAPKLLIYSASNLQSGVPSRFSGSGSGTDFTLTISSLQPEDFATYYCQQNYKTPYTFGGGTKVEIK
1 | NRP1-214 (antibody, IgG2, V domains shown) VH: EVQLLESGGGLVQPGGSLRLSCAASGFTFTTYGMSWVRQAPGKGLEWVSAISGSGGTTYYADSVKGRFTISRDNSKNTLYLQMNSLRAEDTAVYYCARVGPGRSIAARQGFKRRNNWFDPWGQGTLVTVSS VL: DIQMTQSPSSLSASVGDRVTITCRASQSVSTSLNWYQQKPGKAPKLLIYGASRLQTGVPSRFSGSGSGTDFTLTISSLQPEDFATYYCQQTYSSPRTFGGGTKVEIK
0.6 | NRP1-280 (antibody, IgG2, V domains shown) VH: EVQLLESGGGLVQPGGSLRLSCAASGFTFTTYGMSWVRQAPGKGLEWVSAISGSGGTTYYADSVKGRFTISRDNSKNTLYLQMNSLRAEDTAVYYCARVGPGRSIAARQGFKRRNNWFDPWGQGTLVTVSS VL: DIQMTQSPSSLSASVGDRVTITCRASQTISNYVNWYQQKPGKAPKLLIYAASSLHAGVPSRFSGSGSGTDFTLTISSLQPEDFATYYCQQGYSTPLTFGGGTKVEIK
3.8 | NRP1-211 (antibody, IgG2, V domains shown) VH: EVQLLESGGGLVQPGGSLRLYCAASGFTFGSYGMSWVRQAPGKGLEWVSSISGSGGSTYYTDSVKGRFTISRDNSKNTLYLQMNSLRAEDTAVYYCVRALAGRRDHWGQGTLVTVSS VL: DIQMTQSPSSLSASVGDRVTITCRASQTISNYVNWYQQKPGKAPKLLIYAASSLHAGVPSRFSGSGSGTDFTLTISSLQPEDFATYYCQQGYSTPLTFGGGTKVEIK
1.2 | NRP1-219 (antibody, IgG2, V domains shown) VH: EVQLLESGGGLVQPGGSLRLSCAASGFPFSSYALSWVRQAPGKGLEWVSAITGSGGNTFYADSVKGRFTISRDNSKNTLYLQMNSLRAEDTAVYYCARGGQSGRPRVRGARRLDYYGMDVWGQGTLVTVSS VL: DIQMTQSPSSLSASVGDRVTITCRASQSISKSLNWYQQKPGKAPKLLIYGASKLQRGVPSRFSGSGSGTDFTLTISSLQPEDFATYYCQQGYSAPLTFGGGTKVEIK
3.6 | NRP1-216 (antibody, IgG2, V domains shown) VH: EVQLLESGGGLVQPGGSLRLSCAASGFSFRNYAMSWVRQAPGKGLEWVSTVSGSGSSTYYADSVKGRFTISRDNSKNTLYLQMNSLRAEDTAVYYCARGRRGMPAPDTVRKMAKSHLYFDSWGQGTLVTVSS VL: DIQMTQSPSSLSASVGDRVTITCRASQSISNYLSWYQQKPGKAPKLLIYAASSLSGGVPSRFSGSGSGTDFTLTISSLQPEDFATYYCQQTYTTPYTFGGGTKVEIK
1 | NRP1-224 (antibody, IgG2, V domains shown) VH: EVQLLESGGGLVQPGGSLRLSCAASGFTFGSYAMAWVRQAPGKGLEWVSGITASGGSTYYADSVKGRFTISRDNSKNTLYLQMNSLRAEDTAVYYCARVGPGRSIAARQGFKRRNNWFDPWGQGTLVTVSS VL: DIQMTQSPSSLSASVGDRVTITCRASQNIGRYLNWYQQKPGKAPKLLIYAASTLHSGVPSRFSGSGSGTDFTLTISSLQPEDFATYYCQQSHSNPFTFGGGTKVEIK
3 | NRP1-228 (antibody, IgG2, V domains shown) VH: EVQLLESGGGLVQPGGSLRLSCAASGFSFSTHAMTWVRQAPGKGLEWVSTISGLGTGTYYADSVKGRFTISRDNSKNTLYLQMNSLRAEDTAVYYCARSTRGGFDYWGQGTLVTVSS VL: DIQMTQSPSSLSASVGDRVTITCRAGQSIRSYLNWYQQKPGKAPKLLIYAASTLQRGVPSRFSGSGSGTDFTLTISSLQPEDFATYYCQQTYTTPLTFGGGTKVEIK
2.3 | NRP1-220 (antibody, IgG2, V domains shown) VH: EVQLLESGGGLVQPGGSLRLSCAASGFTFRTYDMGWVRQAPGKGLEWVSAVSGSGGTTYYADSVKGRFTISRDNSKNTLYLQMNSLRAEDTAVYYCARETRRVLRRQWRRSYHSYGLDVWGQGTLVTVSS VL: DIQMTQSPSSLSASVGDRVTITCRASQSISNKLNWYQQKPGKAPKLLIYAASTLQRGVPSRFSGSGSGTDFTLTISSLQPEDFATYYCQQSYKTPLTFGGGTKVEIK
0.8 | NRP1-235 (antibody, IgG2, V domains shown) VH: EVQLLESGGGLVQPGGSLRLSCAASGFTFPNYAMTWVRQAPGKGLEWVSGISGSGGRIYYADSVKGRFTISRDNSKNTLYLQMNSLGAEDTAVYYCARARKFRELLRRNNYSNHYYMDVWGQGTLVTVSS VL: DIQMTQSPSSLSASVGDRVTITCRTSQSIGNYLNWYQQKPGKAPKLLIYGASKLQSGVPSRFSGSGSGTDFTLTISSLQPEDFATYYCQQGYSTPRTFGGGTKVEIK
6.2 | NRP1-273 (antibody, IgG2, V domains shown) VH: EVQLLESGGGLVQPGGSLRLYCAASGFTFGSYGMSWVRQAPGKGLEWVSSISGSGGSTYYTDSVKGRFTISRDNSKNTLYLQMNSLRAEDTAVYYCVRALAGRRDHWGQGTLVTVSS VL: DIQMTQSPSSLSASVGDRVTITCRASRRISTYLNWYQQKPGKAPKLLIYAASSLHAGVPSRFSGSGSGTDFTLTISSLQPEDFATYYCQQGYSTPLTFGGGTKVEIK
1200 | NRP1-137 (antibody, IgG2, V domains shown) VH: EVQLLESGGGLVQPGGSLRLSCAASGFTFSRYAMNWVRQAPGKGLEWVSTISSGGGYTYYPDSVKGRFTISRDNSKNTLYLQMNSLRAEDTAVYYCARSYGGGFDYWGQGTLVTVSS VL: DIQMTQSPSSLSASVGDRVTITCQASQSISSYLAWYQQKPGKAPKLLIYPKHNRPPGVPSRFSGSGSGTDFTLTISSLQPEDFATYYCQQSYKSPLTFGQGTKVEIK
15.4 | NRP1-14 (VHH) VHH: EVQLVESGGGLVQPGGSLRLSCAASGFTFRNFGMGWFRQAPGKEREFVSAISPGGVERYADSVKGRFTISADNSKNTAYLQMNSLKPEDTAVYYCATVGGYDYGYYYGMDVWGQGTLVTVSS
12.8 | NRP1-223 (antibody, IgG2, V domains shown) VH: EVQLLESGGGLVQPGGSLRLSCAASGFTFKKYAMSWVRQAPGKGLEWVSTISGSGRSTYYADSVKGRFTISRDNSKNTLYLQMNSLRAEDTAVYYCARDLARGTMPRGVIIPHNWFDPWGQGTLVTVSS VL: DIQMTQSPSSLSASVGDRVTITCRASQSVRNYLNWYQQKPGKAPKLLIYGASRLHSGVPSRFSGSGSGTDFTLTISSLQPEDFATYYCQQSYSGPYSFGGGTKVEIK
6.2 | NRP1-262 (antibody, IgG2, V domains shown) VH: EVQLLESGGGLVQPGGSLRLSCAASGFTFKKYAMSWVRQAPGKGLEWVSTISGSGRSTYYADSVKGRFTISRDNSKNTLYLQMNSLRAEDTAVYYCARDLARGTMPRGVIIPHNWFDPWGQGTLVTVSS VL: DIQMTQSPSSLSASVGDRVTITCRTSQSINTYLNWYQQKPGKAPKLLIYAASGLHSGVPSRFSGSGSGTDFTLTISSLQPEDFATYYCQQAYGTPFTFGGGTKVEIK
15.9 | NRP1-16 (VHH) VHH: EVQLVESGGGLVQPGGSLRLSCAASGRTFSRYVMGWFRQAPGKEREWVATSGTGYGATYADSVKGRFTISADNSKNTAYLQMNSLKPEDTAVYYCARGWLRTGWSIWGQGTLVTVSS
